Paper PMC2910063
Where two headings read alike, the source gives them in different places.

Columns and labels:
[1] = target: T1, FoxM1-DBD (FoxM1C 222-360), crystal (UniProt Q08050 222-360); assay: X-ray crystallography 2.2 A
T1 sequence: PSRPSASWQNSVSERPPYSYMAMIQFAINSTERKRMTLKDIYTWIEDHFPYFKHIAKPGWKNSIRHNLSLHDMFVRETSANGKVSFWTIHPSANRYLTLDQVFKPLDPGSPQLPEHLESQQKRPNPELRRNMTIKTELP

[2] = target: T2, FoxM1-DBD (FoxM1C 222-360) (UniProt Q08050 222-360); assay: competition fluorescence anisotropy
T2 sequence: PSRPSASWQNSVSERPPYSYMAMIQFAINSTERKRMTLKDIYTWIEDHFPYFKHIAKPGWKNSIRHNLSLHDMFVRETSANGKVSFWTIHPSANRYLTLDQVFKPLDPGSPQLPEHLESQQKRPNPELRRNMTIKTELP

[3] = target: T2, FoxM1-DBD (FoxM1C 222-360); assay: fluorescence anisotropy
[4] = target: T2, FoxM1-DBD (FoxM1C 222-360); assay: fluorescence anisotropy; remark: listed apart in the source

B1: Fm1-2x-19nt-aa/tt (dsDNA)
DNA 1: AAATTGTTTATAAACAGCCCG
DNA 2: TTCGGGCTGTTTATAAACAAT
- binding result [1]: binds

B2: 1x (dsDNA)
DNA 1: CCGATTGTTTAGCCCGTGCC
DNA 2: GGCACGGGCTAAACAATCGG
- IC50 [2]: 7 µM

B3: 11 bp consensus, TAMRA (dsDNA)
DNA 1: CCATAAACAAC
DNA 2: GTTGTTTATGG
- Kd [3]: 7 ± 0.3 µM
- Kd [4]: 7.5 ± 0.8 µM
